Experimental data as given in article PMC12711580, “Florigen activation complex forms via multifaceted assembly in Arabidopsis” (Nature, 2025).
Substitutions are numbered along the chain they refer to. Numbers in names are those of the source.

T1: MBP–FD(T282E), maltose-binding protein-fused phospho-mimic mutant FD (Arabidopsis thaliana, UniProt Q84JK2 2-285, T282E)
T1 construct: FD, bZIP transcription factor, Arabidopsis thaliana; residues 2-285; codon-optimised for E. coli; also called MBP-FD^(2–285 (T282E)); source: E. coli, purified (Ni-NTA, size-exclusion chromatography); not shown: MBP, N-terminal, kept
T1 sequence (looked up): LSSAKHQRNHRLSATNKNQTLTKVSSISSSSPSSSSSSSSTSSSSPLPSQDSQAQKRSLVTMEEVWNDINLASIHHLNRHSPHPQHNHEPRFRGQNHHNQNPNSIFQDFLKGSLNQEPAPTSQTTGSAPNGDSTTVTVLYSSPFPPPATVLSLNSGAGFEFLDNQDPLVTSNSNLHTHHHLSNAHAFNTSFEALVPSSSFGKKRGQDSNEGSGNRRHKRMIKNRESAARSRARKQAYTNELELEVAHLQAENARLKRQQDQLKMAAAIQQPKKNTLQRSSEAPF

B1: MBP–FDc(T282E), N-terminal MBP-fused, truncated FD (amino acids 215–285) (domain or fragment, Arabidopsis thaliana, UniProt Q84JK2 215-285, looked up)
chain: NRRHKRMIKNRESAARSRARKQAYTNELELEVAHLQAENARLKRQQDQLKMAAAIQQPKKNTLQRSSEAPF
notes: FD, Arabidopsis thaliana; also called MBP-FDc^(215–285 (T282E)); source: E. coli, purified; not shown: MBP, N-terminal, kept
B2: MBP–FDc(T282E) Mu2 (Y238A,E243A) (domain or fragment, Arabidopsis thaliana, UniProt Q84JK2 215-285, looked up)
chain: B1 chain with Y24A, E29A
notes: FD, Arabidopsis thaliana; amino acids 215–285; source: E. coli, purified; not shown: MBP, N-terminal, kept
B3: MBP–FDc(T282E) Mu3 (L242A) (domain or fragment, Arabidopsis thaliana, UniProt Q84JK2 215-285, looked up)
chain: B1 chain with L28A
notes: FD, Arabidopsis thaliana; amino acids 215–285; L242A is printed for Mu3 only in the name of the transgene gFD::3HA-3Flag-FD^Mu3_L242A; source: E. coli, purified; not shown: MBP, N-terminal, kept
B4: MBP–FDc(T282E) Mu6 (L263A) (domain or fragment, Arabidopsis thaliana, UniProt Q84JK2 215-285, looked up)
chain: B1 chain with L49A
notes: as for B2
B5: GRF7 (14-3-3ν), recombinant (natural protein, Arabidopsis thaliana, UniProt Q96300 1-265, looked up)
chain: MSSSREENVYLAKLAEQAERYEEMVEFMEKVAKTVDTDELTVEERNLLSVAYKNVIGARRASWRIISSIEQKEESRGNDDHVSIIKDYRGKIETELSKICDGILNLLDSHLVPTASLAESKVFYLKMKGDYHRYLAEFKTGAERKEAAESTLVAYKSAQDIALADLAPTHPIRLGLALNFSVFYYEILNSPDRACSLAKQAFDEAISELDTLGEESYKDSTLIMQLLRDNLTLWNSDINDEAGGDEIKEASKHEPEEGKPAETGQ
notes: GRF7 (14-3-3ν), Arabidopsis thaliana; cloned into pMAL-c5X-His or a modified pMAL-c5X vector; also called GRF7-6His; source: E. coli, purified (Ni-NTA, size-exclusion chromatography)

Tests used:
[1] = target: B5; experiment: SEC-MALS; MBP–FDc(T282E) or its mutants with GRF7; 25 mM Tris-HCl pH 8.0, 160 mM NaCl, 2% glycerol; Superdex 200; details: both partners purified
[2] = target: the molecule itself; experiment: SEC-MALS; MBP–FDc(T282E) alone at low concentration; 25 mM Tris-HCl pH 8.0, 160 mM NaCl, 2% glycerol; Superdex 200
[3] = target: the molecule itself; experiment: SEC-MALS; MBP–FDc(T282E) or its mutants with GRF7; 25 mM Tris-HCl pH 8.0, 160 mM NaCl, 2% glycerol; Superdex 200
[4] = target: T1, MBP–FD(T282E), maltose-binding …; experiment: SEC; gel filtration of mixed purified proteins without DNA, fractions analysed on gel; details: both partners purified

In the case of B1, the binding result [1] is reported as “binds” and the “stoichiometry N” value [2] is reported as 2.

B2: binds [1]; binds [3].

For B3, the “stoichiometry N” value [1] was 1 copy of FDc(T282E) per GRF7 dimer.

B4: binds [1]; binds [3].

B5: binds [4].
